Substitutions are numbered along the chain they refer to. Names and notes keep the numbering of the source.
B1: VH_G27A (antibody, V domains shown)
VH: VKLLEQSGAELVKPGASVRLSCTASAFNIKDTYMSWVKQRPEQGLEWIGRIDPENGDTKYDPKFQGKATITADTSSNTAYLHLSSLTSGDTAVYYCSRGWEGFAYWGQGTLVTVSA
VL: ELVMTQTPASLAVSLGQRATISCRASENVDKYGNSFMHWYQQKAGQPPKLLIYRASELQWGIPARFSGSGSRTDFTLTINPVEADDVATYFCQRSNEVPWTFGGGTKLEIKR
B2: VH_G27P (antibody, V domains shown)
VH: B1 VH with A26P
VL: ELVMTQTPASLAVSLGQRATISCRASENVDKYGNSFMHWYQQKAGQPPKLLIYRASELQWGIPARFSGSGSRTDFTLTINPVEADDVATYFCQRSNEVPWTFGGGTKLEIK
notes: also called 4E5-G27P; copies: 2 + 2
B3: VH_S26_del (antibody, V domains shown)
VH: VKLLEQSGAELVKPGASVRLSCTAGFNIKDTYMSWVKQRPEQGLEWIGRIDPENGDTKYDPKFQGKATITADTSSNTAYLHLSSLTSGDTAVYYCSRGWEGFAYWGQGTLVTVSA
VL: B1 VL
B4: VH_A25_del (antibody, V domains shown)
VH: B3 VH with A24S
VL: B2 VL
notes: also called 4E5-del-25; copies: 2 + 2
B5: VH_Y106R (antibody, V domains shown)
VH: B1 VH with A26G, Y105R
VL: B2 VL
notes: copies: 2 + 2

Each binder was assayed against T1, EDIII-DV1 (Dengue virus serotype 1 (DV1), UniProt P17763 581-673) (assay: not given).
T1 construct: also called EDIII of DV1; EDIII-DVI

Which Kd does the source give for B1 here?
Its Kd is 0.0805 nM.

And the koff?
The koff was 8.38e-05 s⁻¹.

What about the kon of the same binder?
Its kon is 1.04e+06 M⁻¹ s⁻¹.

How did the Kd turn out when B2 was run?
The Kd was 2.76 nM.

What about the koff of the same binder?
The koff was 0.00841 s⁻¹.

And the kon?
The kon was 3.05e+06 M⁻¹ s⁻¹.

How did the Kd turn out when B3 was run?
Its Kd is 0.118 nM.

What does the source list for B4?
Kd: 1.43 nM; koff: 0.00133 s⁻¹; kon: 933000 M⁻¹ s⁻¹

What follows are binders tested against T2, EDIII-DV2 (Dengue virus serotype 2 (DV2), UniProt P14337 581-673) (assay: not given).
T2 construct: also called EDIII of DV2; EDIII-DVII

B1 was tested. Which Kd did it give?
Its Kd is 0.202 nM.

And the kon?
The kon was 2.08e+06 M⁻¹ s⁻¹.

For B2, which Kd is on record?
Its Kd is 0.265 nM.

And the koff?
The koff was 0.000527 s⁻¹.

And the kon?
The kon was 1.99e+06 M⁻¹ s⁻¹.

How did the Kd turn out when B3 was run?
The Kd was 0.104 nM.

Which koff does the source give for B4 here?
The koff was 0.000182 s⁻¹.

What about the kon of the same binder?
The kon was 2.74e+06 M⁻¹ s⁻¹.

Target: T1, EDIII-DV1
Experiment: not given
Remark: another data set of the same source

B1 was tested. Which Kd did it give?
Its Kd is less than 0.3 nM.

B2 was tested. Which Kd did it give?
Its Kd is 4.58 nM.

Which Kd does the source give for B3 here?
The Kd was less than 0.3 nM.

How did the Kd turn out when B5 was run?
Its Kd is less than 0.3 nM.

With B4 as the binder, how does the Kd read?
Its Kd is 1.27 nM.

These binders were tested against T3, EDIII-DV4 (Dengue virus serotype 4 (DV4), UniProt P09866 580-672) (assay: not given).
T3 construct: also called EDIII of DV4; DV4 EDIII

B1 was tested. Which Kd did it give?
The Kd was 43.2 nM.

Which Kd does the source give for B2 here?
The Kd was 1970 nM.

B5 was tested. Which Kd did it give?
Its Kd is 272 nM.

For B4, which Kd is on record?
The Kd was 236 nM.

Target: T2, EDIII-DV2
Experiment: not given
Remark: another data set of the same source

Which Kd does the source give for B1 here?
The Kd was less than 0.3 nM.

Which Kd does the source give for B3 here?
The Kd was less than 0.3 nM.

For B4, which Kd is on record?
Its Kd is less than 0.3 nM.

What follows are binders tested against T4, EDIII-DV3 (Dengue virus serotype 3 (DV3), UniProt Q6YMS3 579-671) (assay: not given).
T4 construct: also called EDIII of DV3; EDIII-DVIII

For B1, which Kd is on record?
The Kd was 20.6 nM.

With B2 as the binder, how does the Kd read?
The Kd was 33.1 nM.

With B3 as the binder, how does the Kd read?
Its Kd is 5.47 nM.

How did the Kd turn out when B5 was run?
The Kd was 33.4 nM.

With B4 as the binder, how does the Kd read?
The Kd was 19.8 nM.

Target: T3, EDIII-DV4
Experiment: not given
Remark: another data set of the same source

B1 was tested. Which Kd did it give?
The Kd was 22.1 nM.

What about the koff of the same binder?
Its koff is 0.0406 s⁻¹.

What about the kon of the same binder?
Its kon is 1.83e+06 M⁻¹ s⁻¹.

Which results are given for B4?
Kd: 25.9 nM; koff: 0.13 s⁻¹; kon: 4.99e+06 M⁻¹ s⁻¹

Target: T4, EDIII-DV3
Experiment: not given
Remark: another data set of the same source

Which Kd does the source give for B1 here?
The Kd was 3.24 nM.

What about the koff of the same binder?
Its koff is 7.54 s⁻¹.

What does the source list for B2?
Kd: 4.52 nM; koff: 0.0133 s⁻¹; kon: 2.95e+06 M⁻¹ s⁻¹

With B3 as the binder, how does the Kd read?
Its Kd is 2.6 nM.

What does the source list for B4?
Kd: 5.4 nM; koff: 0.0269 s⁻¹; kon: 4.98e+06 M⁻¹ s⁻¹

What follows are binders tested against T1, EDIII-DV1 (assay: competition ELISA; affinity relative to 4E5A).

For B1, which “REL AFFINITY” value is on record?
Its value is greater than 1.23.

How did the “REL AFFINITY” value turn out when B2 was run?
Its value is 0.08.

B3 was tested. Which “REL AFFINITY” value did it give?
Its value is greater than 1.23.

For B5, which “REL AFFINITY” value is on record?
Its value is greater than 1.23.

How did the “REL AFFINITY” value turn out when B4 was run?
Its value is 0.29.

Each binder was assayed against T3, EDIII-DV4 (assay: competition ELISA; affinity relative to 4E5A).

How did the “REL AFFINITY” value turn out when B1 was run?
The value was 2.92.

Which “REL AFFINITY” value does the source give for B2 here?
Its value is 0.06.

For B5, which “REL AFFINITY” value is on record?
The value was 0.46.

How did the “REL AFFINITY” value turn out when B4 was run?
Its value is 0.54.

What follows are binders tested against T4, EDIII-DV3 (assay: competition ELISA; affinity relative to 4E5A).

With B1 as the binder, how does the “REL AFFINITY” value read?
The value was 1.17.

B2 was tested. Which “REL AFFINITY” value did it give?
The value was 0.73.

Which “REL AFFINITY” value does the source give for B3 here?
Its value is 4.42.

How did the “REL AFFINITY” value turn out when B5 was run?
The value was 0.72.

For B4, which “REL AFFINITY” value is on record?
Its value is 1.22.

Reference: patent US20200207841A1 (MIT, published 2020)
